# Substitutions are numbered along the chain they refer to.
# B1: B10v5x425 (bispecific antibody, V domains shown)
# VL (c-MET arm): EPVLTQPPSVSVAPGETATIPCGGDSLGSKIVHWYQQRPGQAPLLVVYDDAARPSGIPERFSGSKSGTTATLTISSVEAGDEADYFCQVYDYHSDVEVFGGGTKLTVLGQPKAA
# VH (c-MET arm): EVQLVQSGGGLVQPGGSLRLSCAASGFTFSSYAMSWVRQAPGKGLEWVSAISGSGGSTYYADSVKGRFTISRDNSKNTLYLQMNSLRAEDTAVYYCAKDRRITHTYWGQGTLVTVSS
# VL (EGFR arm): DIQMTQSPSSLSASVGDRVTITCSASSSVTYMYWYQQKPGKAPKLLIYDTSNLASGVPSRFSGSGSGTDYTFTISSLQPEDIATYYCQQWSSHIFTFGQGTKVEIKR
# VH (EGFR arm): QVQLVQSGAEVKKPGASVKVSCKASGYTFTSHWMHWVRQAPGQGLEWIGEFNPSNGRTNYNEKFKSKATMTVDTSTNTAYMELSSLRSEDTAVYYCASRDYDYDGRYFDYWGQGTLVTVSS
# notes: c-MET x EGFR SEED bispecific
# B2: B10x425 (bispecific antibody, V domains shown)
# VL (c-MET arm): QSVLTQPPSTSGTPGQRVTISCFGSSSNVGVNTVNWYRQLPGTAPKLLIYDNNLRPSGVPERFSGSKSGTSASLAITGLQAEDEGDYYCQSYDSSLSDVVFGGGTKLTVLGQPKAG
# VH (c-MET arm): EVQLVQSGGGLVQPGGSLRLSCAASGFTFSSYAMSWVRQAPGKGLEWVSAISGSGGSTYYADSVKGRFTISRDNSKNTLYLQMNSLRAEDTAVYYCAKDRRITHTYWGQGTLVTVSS
# VL (EGFR arm): B1 VL (EGFR arm)
# VH (EGFR arm): B1 VH (EGFR arm)
# notes: c-MET x EGFR SEED bispecific
# B3: CS06x425 (bispecific antibody, V domains shown)
# VL (c-MET arm): QLVLTQSPSVSVAPGKTARITCGGNNIRNVGVHWYQKKPGQAPILVVYDDDDRPSGVPERFSGSNSGNTATLTISRVEAGDEADYYCQVWDSATDQRVFGGGTKLTVLGQPKAG
# VH (c-MET arm): QVQLQQSGAEVKKPGSSAKVSCKASGGTFSSNAISWVRQAPGQGLEWMGGIIPIFGTAIYAQKFQGRVTITADESTSTAYMELSSLRSEDTAVYYCARDQRGYYYYYYYGMDVWGQGTTVTVSS
# VL (EGFR arm): B1 VL (EGFR arm)
# VH (EGFR arm): B1 VH (EGFR arm)
# notes: c-MET x EGFR SEED bispecific
# B4: B10v5x225-M (bispecific c-MET x EGFR SEEDbody) (bispecific antibody, V domains shown)
# VH 1: not shown
# VL 1: B1 VL (c-MET arm)
# VH 2: EVQLVQSGAEVKKPGASVKVSCKASGFSLTNYGVHWMRQAPGQGLEWIGVIWSGGNTDYNTPFTSRVTITSDKSTSTAYMELSSLRSEDTAVYYCARALTYYDYEFAYWGQGTLVTVSS
# VL 2: DIQMTQSPSSLSASVGDRVTITCRASQSIGTNIHWYQQKPGKAPKLLIKYASESISGVPSRFSGSGYGTDFTLTISSLQPEDVATYYCQQNYNWPTTFGQGTKVEIK
# notes: SEEDbody format (IgG1 hinge-CH2-SEED CH3)
# B5: CS06x225-L (bispecific antibody, V domains shown)
# VL (c-MET arm): B3 VL (c-MET arm)
# VH (c-MET arm): B3 VH (c-MET arm)
# VL (EGFR arm): B4 VL 2 with Y92N
# VH (EGFR arm): B4 VH 2 with S53R
# notes: c-MET x EGFR SEED bispecific
# B6: B10x225-L (bispecific antibody, V domains shown)
# VL (c-MET arm): B2 VL (c-MET arm)
# VH (c-MET arm): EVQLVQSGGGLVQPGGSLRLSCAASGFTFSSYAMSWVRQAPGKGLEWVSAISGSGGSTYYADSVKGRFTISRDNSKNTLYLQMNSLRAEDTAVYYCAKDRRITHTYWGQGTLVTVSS
# VL (EGFR arm): B4 VL 2 with Y92N
# VH (EGFR arm): B4 VH 2 with S53R
# notes: c-MET x EGFR SEED bispecific; also called 225L, B10
# B7: CS06x225-M (bispecific antibody, V domains shown)
# VL (c-MET arm): B3 VL (c-MET arm)
# VH (c-MET arm): B3 VH (c-MET arm)
# VL (EGFR arm): B4 VL 2
# VH (EGFR arm): B4 VH 2
# notes: c-MET x EGFR SEED bispecific
# B8: B10x225-M (bispecific antibody, V domains shown)
# VL (c-MET arm): B2 VL (c-MET arm)
# VH (c-MET arm): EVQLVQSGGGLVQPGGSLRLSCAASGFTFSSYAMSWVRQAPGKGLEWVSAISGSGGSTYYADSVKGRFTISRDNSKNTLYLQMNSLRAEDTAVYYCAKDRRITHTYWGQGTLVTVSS
# VL (EGFR arm): B4 VL 2
# VH (EGFR arm): B4 VH 2
# notes: c-MET x EGFR SEED bispecific
# B9: B10x225-H (bispecific antibody, V domains shown)
# VL (c-MET arm): B2 VL (c-MET arm)
# VH (c-MET arm): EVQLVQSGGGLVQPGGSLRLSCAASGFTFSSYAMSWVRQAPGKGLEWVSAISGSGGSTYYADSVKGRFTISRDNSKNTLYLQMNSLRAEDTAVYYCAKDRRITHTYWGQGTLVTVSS
# VL (EGFR arm): B4 VL 2 with Y92N, N93E, T96N
# VH (EGFR arm): B4 VH 2 with T100D
# notes: c-MET x EGFR SEED bispecific
# B10: oa 225-L (antibody, V domains shown)
# VH: B4 VH 2 with S53R
# VL: B4 VL 2 with Y92N
# notes: one-armed (monovalent) anti-EGFR SEED molecule
# B11: oa225-M (antibody, V domains shown)
# VH: B4 VH 2
# VL: B4 VL 2
# notes: as for B10
# B12: matuzumab (425) (antibody, V domains shown)
# VH: B1 VH (EGFR arm)
# VL: B1 VL (EGFR arm) with R107G
# Biological target: T1, c-MET and EGFR co-expressed on cells (human, UniProt P08581;P00533)
# T1 construct: endogenous receptor on the cell surface; not a complex: two separate receptors on the same cell; used as target only for bispecific c-MET x EGFR molecules, whose cell staining cannot be split between the two arms; also called cells that carry both receptors: NCI-H441, EBC-1, A431, MKN-45, A549, HepG2 (cell line under assay)
# Assay: flow cytometry, A549 cells (c-MET+ EGFR++)
row,MFI at 100 nM,Binder
1,328,B1
2,270,B2
3,268,B3
4,383,B4
5,212,B5
6,192,B6
7,264,B7
8,572,B8
9,454,B9

# Biological target: T2, EGFR (epidermal growth factor receptor) on A549 cells (human, UniProt P00533 25-1210)
# T2 construct: whole, on cells; Endogenous receptor of A549 cells; phosphorylation read out in cell lysates
# Assay: flow cytometry, A549 cells (c-MET+ EGFR++)
row,MFI at 100 nM,Binder
1,91,B10
2,138,B11

# Biological target: T3, EGFR on cells (human, UniProt P00533)
# T3 construct: endogenous receptor on the cell surface; for A549 cells m5 is used; also called on NCI-H441, EBC-1, A431, MKN-45, HepG2 or T47D cells (cell line under assay)
# Assay: flow cytometry, HepG2 cells (c-MET+ EGFR+)
row,MFI at 100 nM,Binder
1,22,B10
2,40,B11

# Biological target: T1, c-MET and EGFR co-expressed on cells
# Assay: flow cytometry, HepG2 cells (c-MET+ EGFR+)
row,MFI at 100 nM,Binder
1,348,B1
2,101,B2
3,164,B3
4,793,B4
5,254,B5
6,85,B6
7,330,B7
8,84,B8
9,100,B9

# Biological target: T3, EGFR on cells
# Assay: flow cytometry, A431 cells (c-MET+ EGFR+++)
row,MFI at 100 nM,Binder
1,1260,B10
2,1500,B11

# Biological target: T1, c-MET and EGFR co-expressed on cells
# Assay: flow cytometry, A431 cells (c-MET+ EGFR+++)
row,MFI at 100 nM,Binder
1,1430,B1
2,1120,B2
3,1350,B3
4,1290,B4
5,890,B5
6,947,B6
7,1170,B7
8,1480,B8
9,1980,B9

# Biological target: T4, c-MET on cells (human, UniProt P08581)
# T4 construct: endogenous receptor on the cell surface; for A549 cells m4 is used; also called HGFR; on NCI-H441, EBC-1, A431, MKN-45, SK-MEL2 or HepG2 cells (cell line under assay)
# Assay: flow cytometry, SK-MEL2 cells (c-MET+ EGFR-)
MFI at 100 nM,binding result,Binder
213,–,B1
25,–,B2
132,–,B3
17,no binding (tested: 100 nM),B10
457,–,B4
188,–,B5
23,–,B6
236,–,B7
53,–,B8
64,–,B9
19,no binding (tested: 100 nM),B11

# Biological target: T3, EGFR on cells
# Assay: flow cytometry, EBC-1 cells (c-MET+++ EGFR++)
row,MFI at 100 nM,Binder
1,137,B10
2,189,B11

# Biological target: T1, c-MET and EGFR co-expressed on cells
# Assay: flow cytometry, EBC-1 cells (c-MET+++ EGFR++)
row,MFI at 100 nM,Binder
1,1960,B1
2,361,B2
3,1370,B3
4,2280,B4
5,2048,B5
6,434,B6
7,1870,B7
8,671,B8
9,948,B9

# Biological target: T3, EGFR on cells
# Assay: flow cytometry, MKN-45 cells (c-MET+++ EGFR++)
row,MFI at 100 nM,Binder
1,83,B10
2,144,B11

# Biological target: T1, c-MET and EGFR co-expressed on cells
# Assay: flow cytometry, MKN-45 cells (c-MET+++ EGFR++)
row,MFI at 100 nM,Binder
1,1280,B1
2,1260,B2
3,1450,B3
4,1270,B4
5,1530,B5
6,1220,B6
7,1470,B7
8,1790,B8
9,1320,B9

# Biological target: T5, EGFR (soluble extracellular domain) (human, UniProt P00533)
# T5 construct: soluble extracellular domain; also called Human EGFR extracellular domain, R&D Systems 1095-ER
# Assay: BLI (Octet), antibody on anti-human Fc biosensors, soluble EGFR ECD as analyte
Kd [nM],koff [s⁻¹],kon [M⁻¹ s⁻¹],Binder
12,0.0078,640000,B12
220,0.14,610000,B10
4.7,0.017,3.6e+06,B4
3.9,0.018,4.6e+06,B7
4.4,0.016,3.7e+06,B11

# Biological target: T6, biotinylated recombinant human c-MET ECD (HGFR extracellular domain) (human, UniProt P08581 25-932, biotinylated (sites not given))
# T6 construct: extracellular domain; also called human c-MET ECD-His
# Assay: BLI (Octet), antibody on anti-human Fc biosensors, soluble c-MET ECD as analyte
Kd [nM],koff [s⁻¹],kon [M⁻¹ s⁻¹],Binder
0.37,0.00015,400000,B4
0.21,0.00022,1.1e+06,B7

# Reference: patent US20180326085A1 (Merck KGaA, published 2018)
